According to paper PMC9997659, “TLN1 contains a cancer-associated cassette exon that alters talin-1 mechanosensitivity” (The Journal of Cell Biology, 2023):
“And” between values parts separate entries of the source, which are not always exact repeats. Equal values may be shown once. Values belong to the molecule of their own block, whether it stands above or below them.

What was measured:
[1] = target: Human talin-1 R1R2-17b (residues 482-786 + additional 17 residues of exon 17b) (human) (UniProt Q9Y490); assay: SEC; analytical gel filtration, Superdex 200 Increase 10/300 GL, run at room temperature; VD1 preincubated with talin R1R2 at a 3:1 ratio for 1 h at 37°C; 100 µl, 100-400 µM protein
[2] = target: T1, Human talin-1 R1R2-WT (residues 482-786) (human, UniProt Q9Y490 482-786); assay: NMR titration; 1H,15N TROSY spectra of 100 µM R1R2 alone and with 300 µM RIAM peptide; 50 mM NaCl, 15 mM NaH2PO4, 6 mM Na2HPO4, 2 mM DTT, pH 6.5, 298K; details: both partners purified
T1 construct: talin-1 (TLN1), human, rod domains R1 and R2, residues 482-786 of the 2,541 amino acid protein; codon optimized synthetic gene in pET151; also called wild-type R1R2; talin R1R2-WT; source: E. coli BL21(DE3)*, purified (Nickel-NTA, TEV cleavage, HiTrap Q)
T1 sequence (Q9Y490 482-786): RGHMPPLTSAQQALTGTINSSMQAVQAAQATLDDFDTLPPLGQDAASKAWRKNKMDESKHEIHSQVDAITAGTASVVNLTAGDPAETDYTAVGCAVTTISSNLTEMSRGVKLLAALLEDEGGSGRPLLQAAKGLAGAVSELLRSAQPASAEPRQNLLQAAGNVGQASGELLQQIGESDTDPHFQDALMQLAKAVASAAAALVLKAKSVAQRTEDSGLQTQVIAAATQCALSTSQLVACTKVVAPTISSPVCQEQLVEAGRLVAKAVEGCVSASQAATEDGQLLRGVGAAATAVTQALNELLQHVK

stoichiometry N (vinculin per talin) [1]: 2 and 3
Molecule: Vinculin domain 1 (VD1) (from UniProt P18206 1-258) (domain or fragment)

binding result [2]: binds
B1: RIAM peptide (residues 4-30) (peptide)
peptide: SEDIDQMFSTLLGEMDLLTQSLGVDTC
notes: RIAM (Rap1-effector), residues 4-30 as printed; source: synthetic peptide (GLBiochem)
